Literature values, collected in patent US6528620B1, “Sid-polyamide fusions: a potent method of regulating gene expression” (University of Utah Research Foundation, priority 1999, dated 2003).

How the values were obtained:
Settings in all cases: Ayer et al., Cell 80:767-776 (1995); cited from earlier work
PAH3 domain of mSin3A = biological target: T1, PAH3 domain of mSin3A (Mus musculus, UniProt Q60520)
T1 sequence (Q60520 457-526 limits assumed): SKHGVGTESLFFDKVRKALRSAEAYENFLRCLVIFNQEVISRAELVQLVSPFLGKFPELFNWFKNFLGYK

PAH4 domain of mSin3A = system: PAH4 domain of mSin3A
PAH1 domain of mSin3A = biological target: T2, PAH1 domain of mSin3A (Mus musculus, UniProt Q60520)
T2 sequence (Q60520 119-189 limits assumed): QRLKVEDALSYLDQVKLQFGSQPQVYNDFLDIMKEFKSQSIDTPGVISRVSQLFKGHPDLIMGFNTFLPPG

Sequence of PAH4 domain of mSin3A (Q60520 889-968 limits assumed): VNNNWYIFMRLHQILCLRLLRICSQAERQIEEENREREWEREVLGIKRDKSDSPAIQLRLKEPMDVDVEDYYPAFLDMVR

B1: Mad1: bHLHZip transcriptional repressor protein of the Mad family (protein)
chain: MAAAVRMNIQMLLEAADYLERREREAEHGYASMLPYNNKDRDALKRRNKSKKNNSSSRSTHNEMEKNRRAHLRLCLEKLKGLVPLGPESSRHTTLSLLTKAKLHIKKLEDCDRKAVHQIDQLQREQRHLKRQLEKLGIERIRMDSIGSTVSSERSDSDREEIDVDVESTDYLTGDLDWSSSSVSDSDERGSMQSLGSDEGYSSTSIKRIKLQDSHKACLGL
modifications: left off: small tags and cut ends
notes: bHLHZip transcriptional repressor protein of the Mad family
no interaction is detected: interaction with PAH3 (PAH3 domain of mSin3A) | interaction with PAH4 (PAH4 domain of mSin3A) | interaction with PAH1 (PAH1 domain of mSin3A)
